Three molecules from PMC2597217 can be followed below.

Data set [1] concerns the target T1, FoxO1 DBD 151-266 (human, UniProt Q12778 151-266). Kind of data set: EMSA.
In another data set the target is FoxO1 DBD 151-256 (human, UniProt Q12778 151-256). Kind of data set: EMSA. A general note: A gel shift assay detects complexes by their altered migration in electrophoresis.
The target of data set [2] is T1, FoxO1 DBD 151-266. Briefly: crystal structure.

T1 sequence (Q12778 151-266): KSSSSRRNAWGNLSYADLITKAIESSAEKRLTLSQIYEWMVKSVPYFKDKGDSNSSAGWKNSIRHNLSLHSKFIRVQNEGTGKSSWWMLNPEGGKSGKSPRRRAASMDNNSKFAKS
FoxO1 DBD 151-256, sequence (Q12778 151-256): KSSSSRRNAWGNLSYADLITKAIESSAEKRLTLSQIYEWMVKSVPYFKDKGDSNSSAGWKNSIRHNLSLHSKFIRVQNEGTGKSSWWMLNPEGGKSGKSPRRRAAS

B1: DBE2 (dsDNA)
DNA 1: TCTTGTTTACATTTTG
DNA 2: CAAAATGTAAACAAGA
B1: in the data set with FoxO1 DBD 151-266 [1], the binding signal was 5 fold affinity vs DBE1.

B2: IRE (dsDNA)
DNA 1: TGGTTTGTTTTGCTTG
DNA 2: CAAGCAAAACAAACCA
With B2, the binding result with FoxO1 DBD 151-256 and in the data set with FoxO1 DBD 151-266 [2] was “binds” each time.

B3: DBE1 (dsDNA)
DNA 1: TGGTTTGTTTACCTTG
DNA 2: CAAGGTAAACAAACCA
As for B3, the binding signal with FoxO1 DBD 151-266 [1] came out at 2 fold affinity vs IRE.
